Test results as given in US10597674B2, “HPPD variants and methods of use” (BASF Agricultural Solutions Seed, US LLC, priority 2015, dated 2020).
Changes are numbered by the printed parent chain. Numbers in names are those of the source.

Key:
soybean shoots = assay: Soybean transformation, selection of shoots with tembotrione; assay type: in vivo; settings: wild-type soybean shoots treated with selection marker
Excerpt: Soybean transformation was achieved by using methods well known in the art, such as the one described using the Agrobacterium tumefaciens mediated transformation soybean half-seed explants using essentially the method described by Paz et al. (2006), Plant cell Rep. 25:206. Transformants were identified by using the HPPD inhibitor herbicide “tembotrione” as selection marker. The appearance of green shoots was observed, and documented as an indicator of tolerance to the HPPD inhibitor herbicide tembotrione.

[1] = test system: transgenic T1 soybean events; assay: Field trials of T1 soybean events, leaf damage eight days after application; assay type: in vivo
Outline: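 T1 soybean events carrying the HPPD inhibitor tolerant polypeptide, field-grown and sprayed with isoxaflutole 210 g/ha or Cmpd 150 g/ha. Leaf damage scored eight days after application; good tolerance defined as ≤15% damaged leaf area, reported as event frequency.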

[2] = biological target: HPPD polypeptides (wild-type SEQ ID NO:1 and mutants) (Pseudomonas sp., UniProt P80064, A172V/A339V/A53E/D148E/D329H/D45N/E105D/E287Q/E300V/E334P/F143Y/G286D/G335D/H150N/H254A/H63N/I158V/I187A/I249V/K92N/L18F/M263R/N24G/N280D/N336S/S245T/S257K/S301E/T205S/V65I); settings: compared with SEQ ID NO:12; Tables 3a, 3b
[3] = test system: HPPD polypeptides (purified, wild-type SEQ ID NO:1 and mutants); assay: Coupled HPPD activity assay: ki determination, competitive inhibition fit; assay type: biochemical, Pseudomonas fluorescens; settings: inhibitor Cmpd. 1
Method: For the generation of purified HPPD polypeptide samples, cells were grown for 3 h at 37° C. in 5 ml LB medium containing 100 μg/ml ampicillin in a 50 ml shaker flask at 140 rpm. One ml of this starter culture was used as inoculum for the expression culture. […] At an OD600 of about 0.6, IPTG (Roth, Karlsruhe, Germany) was added to a concentration of 0.4 mM. After further growth for 60 min at 37° C., the temperature was reduced to 28° C. and growth continued for another 18 h at 140 rpm. Cells were harvested by centrifugation at 4° C., 3200 g for 30 min in 50 ml Falcon tubes and cell pellets were stored at −80° C. […]
The resulting protein samples were re-buffered into 20 mM Tris, 20% Glycerol (pH 7.8) (Sigma-Aldrich, St. Louis, USA) by use of Zeba™ Spin Desalting Columns, 7K MWCO, 10 mL (Thermo Fisher Scientific, Waltham, USA) and analysed for protein concentration and purity by Abs280 (NANODROP 8000, Thermo Fisher Scientific, Waltham, USA) and SDS-PAGE. […]
The mutant HPPD polypeptides represented here are examples by a way of illustration, not by a way of limitation. […] The inhibitor concentrations were adopted for the respective HPPD polypeptide/inhibitor pairs to generate dynamic data, i.e. variants with lower tolerance were analyzed in a range of lower inhibitor concentrations, and concentrations of up to 1200 μM were used for variants with maximized tolerance. […]

[4] = biological target: HPPD polypeptides (wild-type SEQ ID NO:1 and mutants) (Pseudomonas sp., UniProt P80064, A172V/A339V/A53E/D148E/D45N/E105D/E287Q/E300V/E334P/F143Y/G286D/G335D/H150N/H254A/H63N/I158V/I187A/I249V/I344V/K92N/L18F/N24G/N280D/N336S/P267G/S245T/S257K/S301E/T205S/T269E/V65I); settings: 50 μM Cmpd. 1, low substrate concentration
[5] = test system: HPPD polypeptides (wild-type SEQ ID NO:1 and mutants); settings: 50 μM Cmpd. 1, low substrate concentration (Table 5)
[6] = 150 g/ha Cmpd. 1, stage V2-V4, eight days after application
[7] = 210 g/ha isoxaflutole, stage V2-V4, eight days after application

Sequence of HPPD polypeptides (wild-type SEQ ID NO:1 and mutants) (Pseudomonas sp., UniProt P80064, A172V/A339V/A53E/D148E/D45N/E105D/E287Q/E300V/E334P/F143Y/G286D/G335D/H150N/H254A/H63N/I158V/I187A/I249V/I344V/K92N/L18F/N24G/N280D/N336S/P267G/S245T/S257K/S301E/T205S/T269E/V65I) (P80064 other isoform, or with tags, fused parts or gaps with the stated changes): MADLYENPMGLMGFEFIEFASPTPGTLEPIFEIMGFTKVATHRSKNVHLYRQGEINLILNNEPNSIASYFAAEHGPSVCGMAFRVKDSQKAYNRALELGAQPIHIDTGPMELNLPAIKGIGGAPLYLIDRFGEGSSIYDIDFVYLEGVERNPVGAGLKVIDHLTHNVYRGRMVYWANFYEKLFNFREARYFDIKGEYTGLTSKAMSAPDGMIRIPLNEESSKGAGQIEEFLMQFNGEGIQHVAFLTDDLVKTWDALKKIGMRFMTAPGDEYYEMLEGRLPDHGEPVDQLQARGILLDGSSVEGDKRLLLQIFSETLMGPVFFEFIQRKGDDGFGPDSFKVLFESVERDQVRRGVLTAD

## CS(=O)(=O)c1ccc(C(=O)C2C(=O)CCCC2=O)c(Cl)c1COCC(F)(F)F [tembotrione, 2-[2-chloro-4-(methylsulfonyl)-3-[(2,2,2,-trifluoroethoxy)methyl]benzoyl]-1,3-cyclohexanedione]
Soybean shoots
  appearance of shoots: entirely bleached

B1: SEQ ID NO: 18: mutant HPPD polypeptide: M264R D330H E335P G336D N337S A340V (protein)
chain: MADLYENPMGLMGFEFIEFASPTPGTLEPIFEIMGFTKVATHRSKNVHLYRQGEINLILNNEPNSIASYFAAEHGPSVCGMAFRVKDSQKAYNRALELGAQPIHIDTGPMELNLPAIKGIGGAPLYLIDRFGEGSSIYDIDFVYLEGVERNPVGAGLKVIDHLTHNVYRGRMVYWANFYEKLFNFREARYFDIKGEYTGLTSKAMSAPDGMIRIPLNEESSKGAGQIEEFLMQFNGEGIQHVAFLTDDLVKTWDALKKIGMRFRTAPPDTYYEMLEGRLPDHGEPVDQLQARGILLDGSSVEGDKRLLLQIFSETLMGPVFFEFIQRKGHDGFGPDSFKVLFESIERDQVRRGVLTAD
modifications: mutant HPPD polypeptide
notes: mutant HPPD polypeptide: M264R D330H E335P G336D N337S A340V
[1]; [6]
  Frequency in the population (events with ≤15% leaf damage): 60%
  Independent events with ≤15% leaf damage after spray: 12
[1]; [7]
  Frequency in the population (events with ≤15% leaf damage): 60%
  Independent events with ≤15% leaf damage after spray: 12
[2]
  HPPD inhibitor tolerance towards Cmpd. 1 and Cmpd. 2, in words: further significant improved

B2: SEQ ID NO:17 (protein)
chain: B1 chain with R264M, P268G, T270E, H330D, I345V
modifications: mutant HPPD polypeptide
[3]
  increase of ki towards Cmpd. 1 compared to SEQ ID NO:2: ~20 fold
[4]
  reduction of substrate turnover: 46%
[5]
  Residual activity: 29%
